From the supplement of paper PMC9732359
± gives the uncertainty stated by the source.

Experiment: protein stability index of a GFP-peptide fusion (yeast GPS) (PSI 1-4); higher = more stable; sorted into four equal gates, so the index is relative within each strain
Outline: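 Tiled 17-residue peptides from yeast proteins were fused downstream of GFP on a plasmid that also expresses Cherry, and the pooled library was carried in yeast. Mid-log cultures grown in leucine-free medium were sorted into four equal gates by GFP/Cherry fluorescence ratio. Plasmids from each gate were PCR-amplified and Illumina-sequenced, and reads were assigned to strains by barcodes. Each peptide's protein stability index is the sum, over gates, of the gate's read frequency multiplied by its gate number.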

DAIQAGIWNDLGSGSNV [PUP1]
protein stability index (doa10∆): 2.71 ± 0.26

VLMGKNTMVRRAIRGFL [RPP0]
protein stability index (doa10∆): 3.27 ± 0.26 | protein stability index (san1∆): 3.34 ± 0.17

DSEKHIDFAPTSPFGGA [RPS9A]
protein stability index (doa10∆): 2.6 ± 0.06 | protein stability index (pdr5∆): 2.65 ± 0.06 | protein stability index (san1∆): 2.69 ± 0.068 | protein stability index (ubr1∆): 2.68 ± 0.041

AIKKKEKLLRHVDSLIE [SRB7]
protein stability index (doa10∆): 3.15 ± 0.094 | protein stability index (pdr5∆): 2.88 ± 0.12 | protein stability index (san1∆): 3.2 ± 0.094 | protein stability index (ubr1∆): 3.27 ± 0.1

ILDNTENYDDTELRQLF [DSN1]
protein stability index (doa10∆): 3.15 ± 0.066 | protein stability index (pdr5∆): 3.28 ± 0.068 | protein stability index (san1∆): 3.37 ± 0.042 | protein stability index (ubr1∆): 3.29 ± 0.05

GSPQMLANEERLSNEMH [RGR1]
protein stability index (doa10∆): 2.9 ± 0.074 | protein stability index (pdr5∆): 2.95 ± 0.071 | protein stability index (san1∆): 3.39 ± 0.051 | protein stability index (ubr1∆): 2.93 ± 0.054

QGFSKDTFELIKTFLVD [YDL116W/NUP84]
protein stability index (doa10∆): 3.02 ± 0.079 | protein stability index (pdr5∆): 3.26 ± 0.063 | protein stability index (san1∆): 2.75 ± 0.062 | protein stability index (ubr1∆): 3.25 ± 0.043

TIVGVKFNNGVVIAADT [PUP1]
protein stability index (doa10∆): 1.43 ± 0.072 | protein stability index (pdr5∆): 2.55 ± 0.14 | protein stability index (ubr1∆): 2.55 ± 0.17

LDDITDSNTTEILTSVD [SIR4]
protein stability index (doa10∆): 3.26 ± 0.066 | protein stability index (pdr5∆): 3.18 ± 0.072 | protein stability index (san1∆): 2.94 ± 0.069 | protein stability index (ubr1∆): 3.08 ± 0.065

DTRITHLLRQTNAFLDS [SNF2]
protein stability index (doa10∆): 1.5 ± 0.037 | protein stability index (pdr5∆): 1.47 ± 0.033 | protein stability index (san1∆): 1.54 ± 0.064 | protein stability index (ubr1∆): 1.61 ± 0.024

TTDKLRSMVRKWQTLIE [RPS1A]
protein stability index (doa10∆): 2.72 ± 0.17 | protein stability index (pdr5∆): 2.46 ± 0.15

ENLNRNWRGREHWKVRN [BRN1]
protein stability index (doa10∆): 3.57 ± 0.11 | protein stability index (pdr5∆): 3.33 ± 0.14 | protein stability index (san1∆): 3.37 ± 0.063 | protein stability index (ubr1∆): 3.5 ± 0.08

SENRFPGWDFETEEIDP [RPL5]
protein stability index (doa10∆): 2.77 ± 0.14 | protein stability index (pdr5∆): 2.78 ± 0.076 | protein stability index (san1∆): 2.48 ± 0.078 | protein stability index (ubr1∆): 2.5 ± 0.16

YWSDKKADTDTLLYEQI [SNF5]
protein stability index (doa10∆): 2.55 ± 0.079 | protein stability index (pdr5∆): 2.61 ± 0.069 | protein stability index (san1∆): 2.64 ± 0.083 | protein stability index (ubr1∆): 2.3 ± 0.049

EDEEKILDNTENYDDTE [DSN1]
protein stability index (doa10∆): 3.37 ± 0.088 | protein stability index (pdr5∆): 3.33 ± 0.078 | protein stability index (san1∆): 3.4 ± 0.058 | protein stability index (ubr1∆): 3.44 ± 0.072

RFYQLGVDLKLKYSKRR [CSN12]
protein stability index (doa10∆): 1.26 ± 0.12 | protein stability index (pdr5∆): 1.16 ± 0.1 | protein stability index (ubr1∆): 1.15 ± 0.088

LNVQVWHIEETGEWFSS [ITC1]
protein stability index (doa10∆): 1.83 ± 0.051 | protein stability index (pdr5∆): 2.03 ± 0.05 | protein stability index (san1∆): 2.39 ± 0.059 | protein stability index (ubr1∆): 2.41 ± 0.043

RAFLIEEQKIVKKVVKE [RPL34A]
protein stability index (doa10∆): 3.25 ± 0.099 | protein stability index (pdr5∆): 3.02 ± 0.13 | protein stability index (san1∆): 2.99 ± 0.12 | protein stability index (ubr1∆): 3.26 ± 0.091

GTPKTDSFIFDGTAKEV [MED4]
protein stability index (doa10∆): 2.32 ± 0.041 | protein stability index (pdr5∆): 2.43 ± 0.046 | protein stability index (san1∆): 2.58 ± 0.071 | protein stability index (ubr1∆): 2.65 ± 0.045

MLRTVTSKTVSNQFKRS [COR1]
protein stability index (doa10∆): 3.11 ± 0.15 | protein stability index (pdr5∆): 2.9 ± 0.092 | protein stability index (san1∆): 2.92 ± 0.083 | protein stability index (ubr1∆): 3.02 ± 0.1

ELMAMNITPRLYTDRSR [RPB2]
protein stability index (doa10∆): 1.91 ± 0.12 | protein stability index (pdr5∆): 1.68 ± 0.074 | protein stability index (san1∆): 1.23 ± 0.13 | protein stability index (ubr1∆): 1.96 ± 0.074

ADAVTKDLKLRREDEII [REC8]
protein stability index (doa10∆): 3.08 ± 0.11 | protein stability index (pdr5∆): 3.31 ± 0.1 | protein stability index (san1∆): 3.3 ± 0.065 | protein stability index (ubr1∆): 3.03 ± 0.062

DLSRIMDWLDNWGRKEH [ITC1]
protein stability index (doa10∆): 3.31 ± 0.2 | protein stability index (pdr5∆): 3.33 ± 0.26 | protein stability index (san1∆): 3.48 ± 0.14

GNSFHLMRELLKMMKLI [PRP8]
protein stability index (doa10∆): 2.78 ± 0.051 | protein stability index (pdr5∆): 2.41 ± 0.046 | protein stability index (san1∆): 2.6 ± 0.065 | protein stability index (ubr1∆): 2.43 ± 0.049

QGPRSYFLDVKCPGCLN [RPS27A]
protein stability index (doa10∆): 2.93 ± 0.097 | protein stability index (pdr5∆): 3.38 ± 0.1 | protein stability index (san1∆): 3.13 ± 0.08 | protein stability index (ubr1∆): 2.6 ± 0.11

EIYTVEDRPPEYWAQRK [ISW2]
protein stability index (doa10∆): 3.44 ± 0.23 | protein stability index (pdr5∆): 3.14 ± 0.14 | protein stability index (ubr1∆): 3.31 ± 0.13

DDDINWQELARSTDEFN [RPT5]
protein stability index (doa10∆): 3.18 ± 0.064 | protein stability index (pdr5∆): 3.21 ± 0.065 | protein stability index (san1∆): 3.11 ± 0.048 | protein stability index (ubr1∆): 3.2 ± 0.043

PCLSRSCTKCPQIVVPD [DIS3]
protein stability index (doa10∆): 2.42 ± 0.034 | protein stability index (pdr5∆): 2.56 ± 0.031 | protein stability index (san1∆): 2.63 ± 0.033 | protein stability index (ubr1∆): 2.57 ± 0.03

FEAAVKMSDGFNGADIR [RPT4]
protein stability index (doa10∆): 3.66 ± 0.18 | protein stability index (pdr5∆): 3.46 ± 0.091 | protein stability index (san1∆): 3.34 ± 0.053 | protein stability index (ubr1∆): 3.39 ± 0.09

SKQVQVSQQPLSRGYTC [ECM29]
protein stability index (doa10∆): 2.83 ± 0.074 | protein stability index (pdr5∆): 2.76 ± 0.091 | protein stability index (san1∆): 2.44 ± 0.061 | protein stability index (ubr1∆): 2.92 ± 0.052

ADAGIELVDMAGAGEAN [MTR3]
protein stability index (doa10∆): 2.76 ± 0.11 | protein stability index (pdr5∆): 2.69 ± 0.084 | protein stability index (san1∆): 2.32 ± 0.1 | protein stability index (ubr1∆): 2.9 ± 0.086

KVSPSMCGVIVKQYNKK [SIN4]
protein stability index (doa10∆): 3 ± 0.19 | protein stability index (pdr5∆): 2.98 ± 0.15 | protein stability index (san1∆): 2.58 ± 0.15 | protein stability index (ubr1∆): 3.15 ± 0.14

GGDWERRNRYKTYYGIH [RPN7]
protein stability index (doa10∆): 1.24 ± 0.049 | protein stability index (pdr5∆): 1.4 ± 0.074 | protein stability index (san1∆): 1.29 ± 0.13 | protein stability index (ubr1∆): 1.18 ± 0.044

LEEKLYQMQSNYESVFT [YIL149C/MLP2]
protein stability index (doa10∆): 2.24 ± 0.052 | protein stability index (pdr5∆): 1.71 ± 0.028 | protein stability index (san1∆): 2.52 ± 0.068 | protein stability index (ubr1∆): 2.57 ± 0.045

TVDLALFGSPPFILEYD [YMR129W/POM152]
protein stability index (doa10∆): 2.36 ± 0.044 | protein stability index (pdr5∆): 2.49 ± 0.047 | protein stability index (san1∆): 1.9 ± 0.087 | protein stability index (ubr1∆): 2.7 ± 0.032

DPQQVFDERIKFANQLH [RPN3]
protein stability index (doa10∆): 1.68 ± 0.09 | protein stability index (pdr5∆): 1.97 ± 0.12 | protein stability index (san1∆): 1.41 ± 0.14 | protein stability index (ubr1∆): 1.33 ± 0.075

PITGASLDLIKERRSLK [RPL24A]
protein stability index (doa10∆): 3.04 ± 0.097 | protein stability index (pdr5∆): 3.07 ± 0.078 | protein stability index (san1∆): 3.02 ± 0.067 | protein stability index (ubr1∆): 2.98 ± 0.06

FELSFTGAPPYYYNTKI [YMR129W/POM152]
protein stability index (doa10∆): 2.75 ± 0.089 | protein stability index (pdr5∆): 1.99 ± 0.12 | protein stability index (san1∆): 2.66 ± 0.15 | protein stability index (ubr1∆): 3.21 ± 0.12

EEEIKKFDSRIRGILMA [PRP8]
protein stability index (doa10∆): 2.71 ± 0.066 | protein stability index (pdr5∆): 2.81 ± 0.074 | protein stability index (san1∆): 2.69 ± 0.052 | protein stability index (ubr1∆): 3.02 ± 0.051

LKTDGVRAVSITSFGFG [FAS2]
protein stability index (doa10∆): 1.44 ± 0.067 | protein stability index (pdr5∆): 2.15 ± 0.099 | protein stability index (san1∆): 1.5 ± 0.11 | protein stability index (ubr1∆): 1.41 ± 0.05

KSHKQTIVTGGGSGNGD [RPP1]
protein stability index (doa10∆): 3.15 ± 0.27 | protein stability index (pdr5∆): 3.55 ± 0.15 | protein stability index (ubr1∆): 3.44 ± 0.2

FYLMVSSLSFGPENALN [YJL039C/NUP192]
protein stability index (doa10∆): 1.68 ± 0.048 | protein stability index (pdr5∆): 1.37 ± 0.047 | protein stability index (san1∆): 1.39 ± 0.12 | protein stability index (ubr1∆): 1.31 ± 0.051

IYQTLIALNLDTTVNDC [SNF2]
protein stability index (doa10∆): 2.19 ± 0.035 | protein stability index (pdr5∆): 2.53 ± 0.04 | protein stability index (san1∆): 2.25 ± 0.054 | protein stability index (ubr1∆): 2.35 ± 0.033

AGQNATVAVMSYSGYDI [RET1]
protein stability index (doa10∆): 1.32 ± 0.039 | protein stability index (pdr5∆): 1.38 ± 0.045 | protein stability index (san1∆): 1.33 ± 0.086 | protein stability index (ubr1∆): 1.66 ± 0.036

LLGNCYSLRLINKEIFH [SRB8]
protein stability index (doa10∆): 1.79 ± 0.069 | protein stability index (pdr5∆): 1.46 ± 0.094 | protein stability index (san1∆): 1.46 ± 0.17 | protein stability index (ubr1∆): 1.36 ± 0.073

TTARAKARAKKTKKEKG [RPN2]
protein stability index (doa10∆): 3.31 ± 0.15 | protein stability index (pdr5∆): 3.63 ± 0.2 | protein stability index (san1∆): 3.16 ± 0.079 | protein stability index (ubr1∆): 3.21 ± 0.089

NILTTHLSHPGTNKDMI [ECM29]
protein stability index (doa10∆): 2.61 ± 0.073 | protein stability index (pdr5∆): 2.2 ± 0.067 | protein stability index (san1∆): 2.15 ± 0.09 | protein stability index (ubr1∆): 2.05 ± 0.044

VGKRVPIVEDRRVKQLD [SIR4]
protein stability index (ubr1∆): 3.35 ± 0.26

SDIVFIHQNAGRLLRAM [BRR2]
protein stability index (doa10∆): 1.73 ± 0.054 | protein stability index (pdr5∆): 1.71 ± 0.054 | protein stability index (san1∆): 1.9 ± 0.071 | protein stability index (ubr1∆): 2.02 ± 0.06

KLNIETMRKISSETDDD [DSN1]
protein stability index (doa10∆): 2.56 ± 0.074 | protein stability index (pdr5∆): 2.27 ± 0.13 | protein stability index (san1∆): 2.77 ± 0.12

GVSISVSFNSKQNEQLH [SMC3]
protein stability index (doa10∆): 1.87 ± 0.064 | protein stability index (pdr5∆): 2.01 ± 0.065 | protein stability index (san1∆): 2.7 ± 0.13 | protein stability index (ubr1∆): 2.35 ± 0.11

KAKVEEMNNIIAASRRH [RPL36A]
protein stability index (doa10∆): 2.85 ± 0.084 | protein stability index (pdr5∆): 3.25 ± 0.075 | protein stability index (san1∆): 3.19 ± 0.068 | protein stability index (ubr1∆): 3.13 ± 0.072

FQFFPKELDALQEKEQL [ISW2]
protein stability index (doa10∆): 2.79 ± 0.066 | protein stability index (pdr5∆): 2.97 ± 0.074 | protein stability index (san1∆): 3.04 ± 0.043 | protein stability index (ubr1∆): 2.97 ± 0.06

NEMLLKRVTKVKRLLFT [MTW1]
protein stability index (doa10∆): 1.26 ± 0.054 | protein stability index (pdr5∆): 1.56 ± 0.049 | protein stability index (san1∆): 1.21 ± 0.11 | protein stability index (ubr1∆): 1.42 ± 0.036
